Laboratory results: patent US20180369425A1, “LINKED AND OTHER pH-TRIGGERED COMPOUNDS” (priority 2017, published 2018)
Residues, ends and D or L forms follow the SMILES beside them. *: point of attachment. X1 = CC1(C)C(/C=C/C=C/C=C/C=C2/N(CCCCCC(=O)NCCN3C(=O)CC(*)C3=O)c3ccc4ccccc4c3C2(C)C)=[N+](CCCCS(=O)(=O)[O-])c2ccc3ccccc3c21

System: 4T1 tumor
Assay: Ex vivo NIRF imaging of organs (biodistribution and kinetics of ICG-pHLIP)
Format: in vivo, mouse
Details: for Fluorescence intensity, Bone / Fluorescence intensity, Brain / Fluorescence intensity, Heart / Fluorescence intensity, Kidneys / Fluorescence intensity, L. Intest. / Fluorescence intensity, Liver / Fluorescence intensity, Lungs / Fluorescence intensity, Muscle / Fluorescence intensity, Pancreas / Fluorescence intensity, S. Intest. / Fluorescence intensity, Skin / Fluorescence intensity, Spleen / Fluorescence intensity, Stomach / Fluorescence intensity, Tumor: mean ± St. D., 5 animals
Protocol: BALB/cAcNHsd mice ranging in age from 5 to 6 weeks obtained from Envigo RMS Inc were used in the study. Mouse mammary 4T1 cancer cells were subcutaneously implanted in the right flank (8×10^5 cells/0.1 mL/flank) of adult female mice. Triple negative 4T1 tumor model closely mimics stage IV of human breast cancer. When tumors reached 5-6 mm in diameter, single tail vein injections of 2.5 nmol (or 0.5 mg/kg) of ICG-pHLIP in sterile PBS with 5% DMSO or 5% Ethanol (volume of the injection was 100 μl) were performed. The whole body and ex vivo imaging was performed using a Stryker 1588 AIM clinical imaging system with L10 AIM Light Source, 1588 AIM Camera using a 10 mm or 5 mm scope.
Animals were euthanized at time points: 5 min, 1 hr, 2 hrs, 4 hrs, 6 hrs, 16 hrs, 26 hrs and 48 hrs. […] 100 μl of blood was collected immediately after euthanasia and mixed with 12.5 μl of citrate-dextrose anticoagulant solution (kept at 4° C.), and necropsy was performed. Tumor, muscles, skin, heart, lungs, liver, spleen, kidneys, brain, pancreas, bone, stomach, small and large intestines were collected, imaged immediately after collection, weighed, and fast frozen in liquid nitrogen.
The ex vivo imaging of organs was performed using a Stryker 1588 AIM clinical imaging system with L10 AIM Light Source, 1588 AIM Camera using a 10 mm scope. The lens was spaced 4.3 cm away from the surface of the organs within an enclosed (light protected) area. The NIRF imaging of each organ was performed at three different laser intensities set on a hexadecimal scale as 0B-22 (low), 12-5C (medium), and 20-3A (high). The digital images of organs were processed using program written in Python to determine the average level of intensity recorded in the green channel. Since organs were imaged in the dark on black mats, the background signal was determined by introducing an intensity threshold. All the pixels with intensity from the green channel above the set threshold were counted and the average green intensity per pixel was calculated. Thus, the mean intensity per organ (Table 17a) and averaged over organs from 5 animals (Table 17b) was calculated.

CC(C)C[C@H](NC(=O)[C@H](Cc1ccc(O)cc1)NC(=O)[C@H](C)NC(=O)[C@H](CCCNC(=N)N)NC(=O)[C@H](Cc1c[nH]c2ccccc12)NC(=O)[C@@H]1CCCN1C(=O)[C@H](CC(N)=O)NC(=O)[C@H](CCC(N)=O)NC(=O)[C@H](CC(=O)O)NC(=O)[C@H](CC(=O)O)NC(=O)[C@H](CSC1CC(=O)N(CCNC(=O)CCCCCN2/C(=C/C=C/C=C/C=C/C3=[N+](CCCCS(=O)(=O)[O-])c4ccc5ccccc5c4C3(C)C)C(C)(C)c3c2ccc2ccccc32)C1=O)NC(=O)[C@H](C)N)C(=O)N[C@@H](CC(=O)O)C(=O)N[C@@H](CC(C)C)C(=O)N[C@@H](CC(C)C)C(=O)N[C@@H](Cc1ccccc1)C(=O)N1CCC[C@H]1C(=O)N[C@H](C(=O)N[C@@H](CC(=O)O)C(=O)N[C@H](C(=O)N[C@@H](CC(C)C)C(=O)N[C@@H](CC(C)C)C(=O)N[C@@H](CC(C)C)C(=O)N[C@@H](CC(=O)O)C(=O)N[C@@H](CC(C)C)C(=O)N[C@@H](CC(C)C)C(=O)N[C@@H](Cc1c[nH]c2ccccc12)C(=O)N[C@@H](C)C(=O)O)[C@@H](C)O)[C@@H](C)O (stereo partly shown) [ICG-pHLIP] (H-AC(X1)DDQNPWRAYLDLLFPTDTLLLDLLWA-OH)
time the fluorescence stays within the tumor (4T1 tumor): up to 26 hours | Fluorescence intensity, Bone (5 min p.i.): 79.4 ± 8.1 a.u. | Fluorescence intensity, Brain (5 min p.i.): 167.0 ± 22.5 a.u. | Fluorescence intensity, Heart (5 min p.i.): 198.1 ± 15.9 a.u. | Fluorescence intensity, Kidneys (5 min p.i.): 171.7 ± 18.4 a.u. | Fluorescence intensity, L. Intest. (5 min p.i.): 37.1 ± 7.9 a.u. | Fluorescence intensity, Liver (5 min p.i.): 419.8 ± 37.9 a.u. | Fluorescence intensity, Lungs (5 min p.i.): 216.6 ± 2.7 a.u. | Fluorescence intensity, Muscle (5 min p.i.): 22.2 ± 20.3 a.u. | Fluorescence intensity, Pancreas (5 min p.i.): 153.2 ± 34.7 a.u. | Fluorescence intensity, S. Intest. (5 min p.i.): 42.4 ± 12.2 a.u. | Fluorescence intensity, Skin (5 min p.i.): 27.9 ± 16.4 a.u. | Fluorescence intensity, Spleen (5 min p.i.): 154.6 ± 9.0 a.u. | Fluorescence intensity, Stomach (5 min p.i.): 91.7 ± 13.4 a.u. | Fluorescence intensity, Tumor (5 min p.i.): 36.2 ± 6.0 a.u. | Fluorescence intensity, Bone (1 hour p.i.): 74.0 ± 13.1 a.u. | Fluorescence intensity, Brain (1 hour p.i.): 137.7 ± 8.9 a.u. | Fluorescence intensity, Heart (1 hour p.i.): 179.6 ± 16.4 a.u. | Fluorescence intensity, Kidneys (1 hour p.i.): 193.7 ± 10.6 a.u. | Fluorescence intensity, L. Intest. (1 hour p.i.): 28.4 ± 17.9 a.u. | Fluorescence intensity, Liver (1 hour p.i.): 533.0 ± 16.7 a.u. | Fluorescence intensity, Lungs (1 hour p.i.): 194.7 ± 6.2 a.u. | Fluorescence intensity, Muscle (1 hour p.i.): 8.2 ± 18.2 a.u. | Fluorescence intensity, Pancreas (1 hour p.i.): 132.7 ± 24.5 a.u. | Fluorescence intensity, S. Intest. (1 hour p.i.): 71.9 ± 16.9 a.u. | Fluorescence intensity, Skin (1 hour p.i.): 39.1 ± 9.0 a.u. | Fluorescence intensity, Spleen (1 hour p.i.): 157.8 ± 4.4 a.u. | Fluorescence intensity, Stomach (1 hour p.i.): 99.1 ± 23.0 a.u. | Fluorescence intensity, Tumor (1 hour p.i.): 100.5 ± 38.5 a.u. | Fluorescence intensity, Bone (2 hours p.i.): 57.5 ± 23.4 a.u. | Fluorescence intensity, Brain (2 hours p.i.): 82.2 ± 17.4 a.u. | Fluorescence intensity, Heart (2 hours p.i.): 167.6 ± 12.2 a.u. | Fluorescence intensity, Kidneys (2 hours p.i.): 156.0 ± 14.1 a.u. | Fluorescence intensity, L. Intest. (2 hours p.i.): 6.4 ± 14.4 a.u. | Fluorescence intensity, Liver (2 hours p.i.): 542.6 ± 26.8 a.u. | Fluorescence intensity, Lungs (2 hours p.i.): 177.0 ± 10.4 a.u. | Fluorescence intensity, Muscle (2 hours p.i.): 0.0 ± 0.0 a.u. | Fluorescence intensity, Pancreas (2 hours p.i.): 89.0 ± 32.0 a.u. | Fluorescence intensity, S. Intest. (2 hours p.i.): 47.1 ± 13.9 a.u. | Fluorescence intensity, Skin (2 hours p.i.): 32.0 ± 18.1 a.u. | Fluorescence intensity, Spleen (2 hours p.i.): 136.9 ± 7.7 a.u. | Fluorescence intensity, Stomach (2 hours p.i.): 80.7 ± 18.6 a.u. | Fluorescence intensity, Tumor (2 hours p.i.): 133.9 ± 14.2 a.u. | Fluorescence intensity, Bone (4 hours p.i.): 63.1 ± 21.0 a.u. | Fluorescence intensity, Brain (4 hours p.i.): 73.8 ± 8.3 a.u. | Fluorescence intensity, Heart (4 hours p.i.): 185.6 ± 7.2 a.u. | Fluorescence intensity, Kidneys (4 hours p.i.): 185.5 ± 6.2 a.u. | Fluorescence intensity, L. Intest. (4 hours p.i.): 7.9 ± 17.6 a.u. | Fluorescence intensity, Liver (4 hours p.i.): 540.1 ± 18.8 a.u. | Fluorescence intensity, Lungs (4 hours p.i.): 187.0 ± 17.2 a.u. | Fluorescence intensity, Muscle (4 hours p.i.): 26.2 ± 24.6 a.u. | Fluorescence intensity, Pancreas (4 hours p.i.): 92.0 ± 2.5 a.u. | Fluorescence intensity, S. Intest. (4 hours p.i.): 64.9 ± 16.3 a.u. | Fluorescence intensity, Skin (4 hours p.i.): 48.2 ± 11.6 a.u. | Fluorescence intensity, Spleen (4 hours p.i.): 150.9 ± 11.4 a.u. | Fluorescence intensity, Stomach (4 hours p.i.): 108.4 ± 6.5 a.u. | Fluorescence intensity, Tumor (4 hours p.i.): 211.2 ± 15.7 a.u. | Fluorescence intensity, Bone (6 hours p.i.): 66.7 ± 16.0 a.u. | Fluorescence intensity, Brain (6 hours p.i.): 55.3 ± 11.0 a.u. | Fluorescence intensity, Heart (6 hours p.i.): 163.0 ± 8.2 a.u. | Fluorescence intensity, Kidneys (6 hours p.i.): 174.0 ± 5.0 a.u. | Fluorescence intensity, L. Intest. (6 hours p.i.): 27.1 ± 15.6 a.u. | Fluorescence intensity, Liver (6 hours p.i.): 527.1 ± 44.4 a.u. | Fluorescence intensity, Lungs (6 hours p.i.): 156.8 ± 15.9 a.u. | Fluorescence intensity, Muscle (6 hours p.i.): 0.0 ± 0.0 a.u. | Fluorescence intensity, Pancreas (6 hours p.i.): 82.2 ± 15.3 a.u. | Fluorescence intensity, S. Intest. (6 hours p.i.): 54.2 ± 11.6 a.u. | Fluorescence intensity, Skin (6 hours p.i.): 47.1 ± 13.6 a.u. | Fluorescence intensity, Spleen (6 hours p.i.): 148.1 ± 13.4 a.u. | Fluorescence intensity, Stomach (6 hours p.i.): 126.8 ± 9.9 a.u. | Fluorescence intensity, Tumor (6 hours p.i.): 198.6 ± 33.0 a.u. | Fluorescence intensity, Bone (16 hours p.i.): 66.2 ± 8.5 a.u. | Fluorescence intensity, Brain (16 hours p.i.): 35.3 ± 1.8 a.u. | Fluorescence intensity, Heart (16 hours p.i.): 129.2 ± 15.7 a.u. | Fluorescence intensity, Kidneys (16 hours p.i.): 170.6 ± 12.8 a.u. | Fluorescence intensity, L. Intest. (16 hours p.i.): 40.5 ± 4.0 a.u. | Fluorescence intensity, Liver (16 hours p.i.): 400.5 ± 34.1 a.u. | Fluorescence intensity, Lungs (16 hours p.i.): 141.3 ± 21.5 a.u. | Fluorescence intensity, Muscle (16 hours p.i.): 0.0 ± 0.0 a.u. | Fluorescence intensity, Pancreas (16 hours p.i.): 70.3 ± 30.0 a.u. | Fluorescence intensity, S. Intest. (16 hours p.i.): 83.8 ± 13.6 a.u. | Fluorescence intensity, Skin (16 hours p.i.): 76.7 ± 20.4 a.u. | Fluorescence intensity, Spleen (16 hours p.i.): 116.3 ± 25.0 a.u. | Fluorescence intensity, Stomach (16 hours p.i.): 117.3 ± 33.1 a.u. | Fluorescence intensity, Tumor (16 hours p.i.): 222.8 ± 11.0 a.u. | Fluorescence intensity, Bone (26 hours p.i.): 42.8 ± 6.4 a.u. | Fluorescence intensity, Brain (26 hours p.i.): 0.0 ± 0.0 a.u. | Fluorescence intensity, Heart (26 hours p.i.): 61.3 ± 6.6 a.u. | Fluorescence intensity, Kidneys (26 hours p.i.): 111.8 ± 7.9 a.u. | Fluorescence intensity, L. Intest. (26 hours p.i.): 0.0 ± 0.0 a.u. | Fluorescence intensity, Liver (26 hours p.i.): 213.1 ± 9.7 a.u. | Fluorescence intensity, Lungs (26 hours p.i.): 64.2 ± 13.9 a.u. | Fluorescence intensity, Muscle (26 hours p.i.): 8.6 ± 19.2 a.u. | Fluorescence intensity, Pancreas (26 hours p.i.): 30.9 ± 17.9 a.u. | Fluorescence intensity, S. Intest. (26 hours p.i.): 37.8 ± 4.7 a.u. | Fluorescence intensity, Skin (26 hours p.i.): 25.1 ± 24.8 a.u. | Fluorescence intensity, Spleen (26 hours p.i.): 48.0 ± 7.7 a.u. | Fluorescence intensity, Stomach (26 hours p.i.): 59.1 ± 13.4 a.u. | Fluorescence intensity, Tumor (26 hours p.i.): 182.6 ± 14.7 a.u. | time of maximum signal in liver (p.i.): 1 h
